Experimental data as given in the supplement of paper PMC9170038.

The sequences below were run on MS2 coat protein (assay: apparent KD of MS2 coat protein; higher = weaker reporter binding). Details: Eterna round: R107; input ligand: arginine 13.2 mM.
In short: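 Designed RNA switches were transcribed on-chip from Illumina sequencing clusters. They were then titrated with SNAP-549-labelled MS2 coat protein (twofold steps, 0.7 or 1.5 nM to 3 µM; 0.8–1.5 h to 10–20 min per step) in 100 mM Tris-HCl pH 7.5, 80 mM KCl, 4 mM MgCl2, without or with constant ligand. Apparent KD is the per-design median of normalised cluster binding-curve fits.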

Sequence | apparent KD of MS2 coat protein [nM]
GCAUCCUAGUCGGCCGCCACUGCAACAUGAGGAUCACCCAUGUCAGGCCUCAUGUGUCCUGGUAGCAGGACCGGGACUAGGAUGC [(T1)-(M1)-(M2)-(T)''-(M)'-(T)'-(T2)_Design4_2/18/17] | 34
UCUUUCUAUGUAGAUACCAGCAUGUUAUCUUUCUUUUGACAUGAGGAUCACCCAUGUAAAUGCCCUUGGCAGCUACAUUUUCUUU [SSTHB #3] | 21
UGUACCAUGUCGGCCGCCACUCAUGAUAAAUAUGAGGAUCACCCAUAUAGCGUCAAAGACGCUAUGAGGACCGGGACAUGGUACU [TryBS Zipper 2] | 40.8
GGCGGACUUAUAGAUACCAGCACAUGAGGAUCACCCAUGUUUGGUCGCACCUCAGUCCUGUGCCCUUGGCAGCUAUGAUAGAUUU [Leaatge] | 16.9
GUCCACAGCCGAAGGAGCGCUAGAAGAUGACAUGAGGAUCACCCAUGUGUGUGGUGUGGCUAGCAGGUAGGUCGCGGAGUGGAUU [Exclusion - Arginine B (Freestyle 15)] | 39.7
GGACCAGGGAGCGAUACCAGCUUGAGUGUGCUGGCCAGGCACAUGAGGAUCACCCAUGUAAGCCCUUGGCAGCGCUCCCUGGUCC [#1 Exclusion - Theophylline B Attempt #27 (HarryS)] | 6.87
AUUCAUGGAAACAUGACAUACAUUACCGGUCGAGGACCGGUACGGCCGCCACUCGGUUGGUGGCACAUGAGGAUCACCCAUGUUA [SS Tryp A #11] | 25.2
AAUGUAUGGCACAUGAGGAUCACCCAUGUGCGAGGACCGGUACGGCCGCCACUCGGUCCUGGGAUCUUAUUACUAUACAUUAAUG [XTryp A #17] | 11.8
CAAAAUAUCGGAAGGAGCGCGGGUAGGCGGGUUGGAUCACAUGAGGAUCACCCAUGUAAAUCGCAGGUAGGUCGCCGAUAACGCG [XArg-B27] | 52.9
AAUGUAUGGCACAUGAGGAUCACCCAUGUGCGAGGACCGGUACGGCCGCCACUCGGUCAAGGGAUCUUACCUCUAUACAUUAAUG [XTryp A #22] | 10.6
UAUAUAGAAGGAAGUCAUAUAGUUGCAGAAGGAGCGUAGGAAACUACAGGUAGGUCGCUGAGGUACAUGAGGAUCACCCAUGUAG [SSArg A #16 Slice of Pi] | 31.1
UUUAUUUAUUUAUUUAUUUAUUUAACAGAAGGAGCGUGGAUUAACACAGGUAGGUCGCUGACAUGAGGAUCACCCAUGUAUUAUU [SSAA #1] | 106
UUAUUUAUAAUGGAUACCAGUCGUAUGGCCCGGCAUCCUGACAUGAGGAUCACCCAUGUCGACCCUUGGCAGCUGUUAUGGGUUU [XTheo B #21] | 14.9
UCGUUUGAGUCGGCCGCCACUGGUCUCAUGGUCAACAUGAGGAUCACCCAUGUAUCUUAGUUAAACAGGACCGGGACUCGAUCGA [#17 Exclusion Tryptophan B] | 62.5
GGCUAACAUGAGGAUCACCCAUGUAUUGAUACCAGUAUUUGAAAAUACCCUUGGCAGCAAAUGAAGAGCGUAGCAGGGUCGAUUA [theeternabot_sameState_MS2_Theo_A_7] | 10
UAACAUGAGGAUCACCCAUGUAUACUAAGUCGAGGACCGGUACGGCCGCCACUCGAACUUCAAGAAUAGGCGGUAAAUGUAAGUA [JR_ExcTryptoA_Sub020] | 11.8

Same assay, conditions: Eterna round: R107; input ligand: none

Sequence | apparent KD of MS2 coat protein [nM]
UGUACCAUGUCGGCCGCCACUCAUGAUAAAUAUGAGGAUCACCCAUAUAGCGUCAAAGACGCUAUGAGGACCGGGACAUGGUACU [TryBS Zipper 2] | 41.3
GUCCACAGCCGAAGGAGCGCUAGAAGAUGACAUGAGGAUCACCCAUGUGUGUGGUGUGGCUAGCAGGUAGGUCGCGGAGUGGAUU [Exclusion - Arginine B (Freestyle 15)] | 30.5
GGACCAGGGAGCGAUACCAGCUUGAGUGUGCUGGCCAGGCACAUGAGGAUCACCCAUGUAAGCCCUUGGCAGCGCUCCCUGGUCC [#1 Exclusion - Theophylline B Attempt #27 (HarryS)] | 9.65
CAAAAUAUCGGAAGGAGCGCGGGUAGGCGGGUUGGAUCACAUGAGGAUCACCCAUGUAAAUCGCAGGUAGGUCGCCGAUAACGCG [XArg-B27] | 19.9
UAUAUAGAAGGAAGUCAUAUAGUUGCAGAAGGAGCGUAGGAAACUACAGGUAGGUCGCUGAGGUACAUGAGGAUCACCCAUGUAG [SSArg A #16 Slice of Pi] | 23.6
UUUAUUUAUUUAUUUAUUUAUUUAACAGAAGGAGCGUGGAUUAACACAGGUAGGUCGCUGACAUGAGGAUCACCCAUGUAUUAUU [SSAA #1] | 28.4
UCGUUUGAGUCGGCCGCCACUGGUCUCAUGGUCAACAUGAGGAUCACCCAUGUAUCUUAGUUAAACAGGACCGGGACUCGAUCGA [#17 Exclusion Tryptophan B] | 50.5

Same assay, conditions: Eterna round: R107; input ligand: theophylline 20 uM

Sequence | apparent KD of MS2 coat protein [nM]
GCAUCCUAGUCGGCCGCCACUGCAACAUGAGGAUCACCCAUGUCAGGCCUCAUGUGUCCUGGUAGCAGGACCGGGACUAGGAUGC [(T1)-(M1)-(M2)-(T)''-(M)'-(T)'-(T2)_Design4_2/18/17] | 47.1
UCUUUCUAUGUAGAUACCAGCAUGUUAUCUUUCUUUUGACAUGAGGAUCACCCAUGUAAAUGCCCUUGGCAGCUACAUUUUCUUU [SSTHB #3] | 20.9
UGUACCAUGUCGGCCGCCACUCAUGAUAAAUAUGAGGAUCACCCAUAUAGCGUCAAAGACGCUAUGAGGACCGGGACAUGGUACU [TryBS Zipper 2] | 50.5
GGCGGACUUAUAGAUACCAGCACAUGAGGAUCACCCAUGUUUGGUCGCACCUCAGUCCUGUGCCCUUGGCAGCUAUGAUAGAUUU [Leaatge] | 33.4
GUCCACAGCCGAAGGAGCGCUAGAAGAUGACAUGAGGAUCACCCAUGUGUGUGGUGUGGCUAGCAGGUAGGUCGCGGAGUGGAUU [Exclusion - Arginine B (Freestyle 15)] | 59.3
GGACCAGGGAGCGAUACCAGCUUGAGUGUGCUGGCCAGGCACAUGAGGAUCACCCAUGUAAGCCCUUGGCAGCGCUCCCUGGUCC [#1 Exclusion - Theophylline B Attempt #27 (HarryS)] | 15.3
AUUCAUGGAAACAUGACAUACAUUACCGGUCGAGGACCGGUACGGCCGCCACUCGGUUGGUGGCACAUGAGGAUCACCCAUGUUA [SS Tryp A #11] | 44.2
AAUGUAUGGCACAUGAGGAUCACCCAUGUGCGAGGACCGGUACGGCCGCCACUCGGUCCUGGGAUCUUAUUACUAUACAUUAAUG [XTryp A #17] | 15.7
